Key:
[1] = target: phosphorylated tau peptide antigen in which threonine at position 181 in tau protein had been phosphorylated; test: sandwich CLEIA, AT270 capture; count at 40 pg/mL over count at 0 pg/mL
[2] = target: phosphorylated tau peptide antigen in which threonine at position 181 in tau protein had been phosphorylated; test: sandwich CLEIA (Lumipulse G), capture on AT270 magnetic particles, ALP-SA label; antigen 40 pg/mL
[3] = target: phosphorylated tau peptide antigen in which threonine at position 181 in tau protein had been phosphorylated; test: sandwich CLEIA (Lumipulse G), capture on AT270 magnetic particles, ALP-SA label; antigen 100 pg/mL
[4] = target: phosphorylated tau peptide antigen in which threonine at position 181 in tau protein had been phosphorylated; test: sandwich CLEIA (Lumipulse G), capture on AT270 magnetic particles, ALP-SA label; antigen 200 pg/mL
[5] = target: phosphorylated tau peptide antigen in which threonine at position 181 in tau protein had been phosphorylated; test: sandwich CLEIA (Lumipulse G), capture on AT270 magnetic particles, ALP-SA label; antigen 400 pg/mL
[6] = target: phosphorylated tau peptide antigen in which threonine at position 181 in tau protein had been phosphorylated; test: sandwich CLEIA, AT270 capture; S/N (40/0 pg/mL) against the mixture of ALP-labeled single antibodies
[7] = target: phosphorylated tau peptide antigen in which threonine at position 181 in tau protein had been phosphorylated; test: sandwich CLEIA (Lumipulse G), capture on AT270 magnetic particles, ALP-SA label; antigen 0 pg/mL (blank)
[8] = target: tau protein of the calibrator reagent for measuring total tau protein (LUMIPULSE G Total Tau Calibrators set, Fujirebio) (UniProt P10636); test: sandwich CLEIA, capture on AT120 magnetic particles, SA-ALP detection; calibrator 60 pg/mL
[9] = target: tau protein of the calibrator reagent for measuring total tau protein (LUMIPULSE G Total Tau Calibrators set, Fujirebio) (UniProt P10636); test: sandwich CLEIA, capture on AT120 magnetic particles, SA-ALP detection; calibrator 150 pg/mL
[10] = target: tau protein of the calibrator reagent for measuring total tau protein (LUMIPULSE G Total Tau Calibrators set, Fujirebio) (UniProt P10636); test: sandwich CLEIA, capture on AT120 magnetic particles, SA-ALP detection; calibrator 420 pg/mL
[11] = target: tau protein of the calibrator reagent for measuring total tau protein (LUMIPULSE G Total Tau Calibrators set, Fujirebio) (UniProt P10636); test: sandwich CLEIA, capture on AT120 magnetic particles, SA-ALP detection; calibrator 900 pg/mL
[12] = target: tau protein of the calibrator reagent for measuring total tau protein (LUMIPULSE G Total Tau Calibrators set, Fujirebio) (UniProt P10636); test: sandwich CLEIA, capture on AT120 magnetic particles, SA-ALP detection; calibrator 2250 pg/mL
[13] = target: tau protein of the calibrator reagent for measuring total tau protein (LUMIPULSE G Total Tau Calibrators set, Fujirebio) (UniProt P10636); test: sandwich CLEIA, capture on AT120 magnetic particles, SA-ALP detection; calibrator 0 pg/mL (blank)
[14] = target: tau protein of the calibrator reagent for measuring total tau protein (LUMIPULSE G Total Tau Calibrators set, Fujirebio) (UniProt P10636); test: sandwich CLEIA, AT120 capture, SA-ALP detection; calculated count at 600 pg/mL over count at 0 pg/mL
[15] = target: tau protein in samples obtained by diluting a cerebrospinal fluid specimen with buffer (UniProt P10636); test: sandwich CLEIA, AT120 capture, SA-ALP detection; diluted cerebrospinal fluid sample LoB, mean of n=10
[16] = target: tau protein in samples obtained by diluting a cerebrospinal fluid specimen with buffer (UniProt P10636); test: sandwich CLEIA, AT120 capture, SA-ALP detection; diluted cerebrospinal fluid sample LoQ 1, mean of n=10
[17] = target: tau protein in samples obtained by diluting a cerebrospinal fluid specimen with buffer (UniProt P10636); test: sandwich CLEIA, AT120 capture, SA-ALP detection; diluted cerebrospinal fluid sample LoQ 2, mean of n=10
[18] = target: tau protein in samples obtained by diluting a cerebrospinal fluid specimen with buffer (UniProt P10636); test: sandwich CLEIA, AT120 capture, SA-ALP detection; diluted cerebrospinal fluid sample LoQ 3, mean of n=10
[19] = target: tau protein in samples obtained by diluting a cerebrospinal fluid specimen with buffer (UniProt P10636); test: sandwich CLEIA, AT120 capture, SA-ALP detection; diluted cerebrospinal fluid sample LoQ 4, mean of n=10
[20] = target: tau protein in samples obtained by diluting a cerebrospinal fluid specimen with buffer (UniProt P10636); test: sandwich CLEIA, AT120 capture, SA-ALP detection; diluted cerebrospinal fluid sample LoQ 5, mean of n=10
[21] = target: phosphorylated tau peptide antigen in which threonine at position 181 in tau protein had been phosphorylated; test: sandwich CLEIA, AT270 capture; count at 4.5 pM over count at 0 pM
[22] = target: phosphorylated tau peptide antigen in which threonine at position 181 in tau protein had been phosphorylated; test: sandwich CLEIA (Lumipulse G), capture on AT270 magnetic particles; antigen 9 pM
[23] = target: phosphorylated tau peptide antigen in which threonine at position 181 in tau protein had been phosphorylated; test: sandwich CLEIA (Lumipulse G), capture on AT270 magnetic particles; antigen 18 pM
[24] = target: phosphorylated tau peptide antigen in which threonine at position 181 in tau protein had been phosphorylated; test: sandwich CLEIA (Lumipulse G), capture on AT270 magnetic particles; antigen 36 pM
[25] = target: phosphorylated tau peptide antigen in which threonine at position 181 in tau protein had been phosphorylated; test: sandwich CLEIA (Lumipulse G), capture on AT270 magnetic particles; antigen 72 pM
[26] = target: phosphorylated tau peptide antigen in which threonine at position 181 in tau protein had been phosphorylated; test: sandwich CLEIA (Lumipulse G), capture on AT270 magnetic particles; antigen 150 pM
[27] = target: phosphorylated tau peptide antigen in which threonine at position 181 in tau protein had been phosphorylated; test: sandwich CLEIA (Lumipulse G), capture on AT270 magnetic particles; antigen 4.5 pM
[28] = target: tau protein of the calibrator reagent for measuring total tau protein (LUMIPULSE G Total Tau Calibrators set, Fujirebio) (UniProt P10636); test: sandwich CLEIA, AT120 capture; calculated count at 600 pg/mL over count at 0 pg/mL
[29] = target: phosphorylated tau peptide antigen in which threonine at position 181 in tau protein had been phosphorylated; test: sandwich CLEIA (Lumipulse G), capture on AT270 magnetic particles; antigen 0 pM (blank)
[30] = target: tau protein of the calibrator reagent for measuring total tau protein (LUMIPULSE G Total Tau Calibrators set, Fujirebio) (UniProt P10636); test: sandwich CLEIA, AT120 capture; S/N (600/0 pg/mL) against BT2-bio + HT7-bio with SA-ALP
[31] = target: tau protein in samples obtained by diluting a cerebrospinal fluid specimen with buffer (UniProt P10636); test: one-step sandwich CLEIA, AT120 capture; diluted cerebrospinal fluid sample LoB, mean of n=10
[32] = target: tau protein in samples obtained by diluting a cerebrospinal fluid specimen with buffer (UniProt P10636); test: one-step sandwich CLEIA, AT120 capture; diluted cerebrospinal fluid sample LoQ 1, mean of n=10
[33] = target: tau protein in samples obtained by diluting a cerebrospinal fluid specimen with buffer (UniProt P10636); test: one-step sandwich CLEIA, AT120 capture; diluted cerebrospinal fluid sample LoQ 2, mean of n=10
[34] = target: tau protein in samples obtained by diluting a cerebrospinal fluid specimen with buffer (UniProt P10636); test: one-step sandwich CLEIA, AT120 capture; diluted cerebrospinal fluid sample LoQ 3, mean of n=10
[35] = target: tau protein in samples obtained by diluting a cerebrospinal fluid specimen with buffer (UniProt P10636); test: one-step sandwich CLEIA, AT120 capture; diluted cerebrospinal fluid sample LoQ 4, mean of n=10
[36] = target: tau protein in samples obtained by diluting a cerebrospinal fluid specimen with buffer (UniProt P10636); test: one-step sandwich CLEIA, AT120 capture; diluted cerebrospinal fluid sample LoQ 5, mean of n=10
[37] = target: tau protein of the calibrator reagent for measuring total tau protein (LUMIPULSE G Total Tau Calibrators set, Fujirebio) (UniProt P10636); test: one-step sandwich CLEIA (Lumipulse G), capture on AT120 magnetic particles; calibrator 101 pg/mL
[38] = target: tau protein of the calibrator reagent for measuring total tau protein (LUMIPULSE G Total Tau Calibrators set, Fujirebio) (UniProt P10636); test: one-step sandwich CLEIA (Lumipulse G), capture on AT120 magnetic particles; calibrator 213 pg/mL
[39] = target: tau protein of the calibrator reagent for measuring total tau protein (LUMIPULSE G Total Tau Calibrators set, Fujirebio) (UniProt P10636); test: one-step sandwich CLEIA (Lumipulse G), capture on AT120 magnetic particles; calibrator 667 pg/mL
[40] = target: tau protein of the calibrator reagent for measuring total tau protein (LUMIPULSE G Total Tau Calibrators set, Fujirebio) (UniProt P10636); test: one-step sandwich CLEIA (Lumipulse G), capture on AT120 magnetic particles; calibrator 1037 pg/mL
[41] = target: tau protein of the calibrator reagent for measuring total tau protein (LUMIPULSE G Total Tau Calibrators set, Fujirebio) (UniProt P10636); test: one-step sandwich CLEIA (Lumipulse G), capture on AT120 magnetic particles; calibrator 2639 pg/mL
[42] = target: phosphorylated tau peptide antigen in which threonine at position 181 in tau protein had been phosphorylated; test: sandwich CLEIA, AT270 capture; S/N (4.5 pM/0 pM) against the ALP-labeled single antibody mixtures
[43] = target: tau protein of the calibrator reagent for measuring total tau protein (LUMIPULSE G Total Tau Calibrators set, Fujirebio) (UniProt P10636); test: one-step sandwich CLEIA (Lumipulse G), capture on AT120 magnetic particles; calibrator 0 pg/mL (blank)

Substance: BSA linker hybrid conjugate 1 labeled with ALP (BT2 Fab′ and HT7 Fab′ on maleimidated BSA, biotinylated, with streptavidin-conjugated alkaline phosphatase) (from UniProt P02769 25-607)
- S/N (40/0) [1]: 10
- Count value [2]: 3110 count
- Count value [3]: 7390 count
- Count value [4]: 14400 count
- Count value [5]: 28700 count
- S/N ratio against the mixed conjugate reaction solution [6]: 9 fold
- Count value [7]: 312 count

Substance: BSA linker hybrid conjugate 2 labeled with ALP (BT2 Fab′ and HT7 Fab′ on biotinylated and maleimidated thiolated BSA, with streptavidin-conjugated alkaline phosphatase) (from UniProt P02769 25-607)
- S/N (40/0) [1]: 14.3
- Count value [2]: 3970 count
- Count value [3]: 10100 count
- Count value [4]: 19300 count
- Count value [5]: 37300 count
- S/N ratio against the mixed conjugate reaction solution [6]: 13 fold
- Count value [7]: 278 count

Substance: antibody mixture of biotinylated monoclonal antibody BT2 and biotinylated monoclonal antibody HT7, detected with streptavidin-labeled ALP
- Count value [8]: 514 count
- Count value [9]: 817 count
- Count value [10]: 2670 count
- Count value [11]: 7070 count
- Count value [12]: 38100 count
- Count value [13]: 409 count
- S/N (600/0) [14]: 10
- Count value [15]: 408 count
- Count value [16]: 455 count
- Count value [17]: 585 count
- Count value [18]: 641 count
- Count value [19]: 694 count
- Count value [20]: 858 count

Substance: hybrid conjugate labeled with alkaline phosphatase (BT2 Fab′ fragment and HT7 Fab′ fragment coupled to maleimidated ALP)
- S/N (4.5/0) [21]: 71.7
- Count value [22]: 73800 count
- Count value [23]: 153000 count
- Count value [24]: 297000 count
- Count value [25]: 576000 count
- Count value [26]: 1.35e+06 count
- Count value [27]: 42600 count
- S/N (600/0) [28]: 60.6
- Count value [29]: 595 count
- S/N ratio against the mixture of the labeled antibodies [30]: 6 fold
- Count value [31]: 728 count
- Count value [32]: 982 count
- Count value [33]: 1160 count
- Count value [34]: 1600 count
- Count value [35]: 1970 count
- Count value [36]: 2380 count
- Count value [37]: 9280 count
- Count value [38]: 17600 count
- Count value [39]: 50400 count
- Count value [40]: 83600 count
- Count value [41]: 211000 count
- S/N ratio against the ALP-labeled Fab′ fragment mixture [42]: 6 fold
- Count value [43]: 744 count

Reference: patent US20220018856A1
